The values that follow come from paper doi:10.1101/2021.12.30.474520, “Substrate Specificity for Human Histidine Methyltransferase SETD3” (bioRxiv, 2021).

Ends that are not written are not given here.

For experiment [1], the target named is T1, human SETD3 (residues 1-497) (human, UniProt Q86TU7 1-497).
T1 construct: The methods describe one recombinant human SETD3 with an N-terminal His6-tag without giving limits; Whether that protocol and tag apply to the 1-497 construct used for ITC and crystals is surmised; In ITC and in the crystals SETD3 was pre-incubated with SAH or sinefungin (SFG) at 1:10; also called SETD3_(1-497); histidine methyltransferase SETD3
T1 sequence (looked up): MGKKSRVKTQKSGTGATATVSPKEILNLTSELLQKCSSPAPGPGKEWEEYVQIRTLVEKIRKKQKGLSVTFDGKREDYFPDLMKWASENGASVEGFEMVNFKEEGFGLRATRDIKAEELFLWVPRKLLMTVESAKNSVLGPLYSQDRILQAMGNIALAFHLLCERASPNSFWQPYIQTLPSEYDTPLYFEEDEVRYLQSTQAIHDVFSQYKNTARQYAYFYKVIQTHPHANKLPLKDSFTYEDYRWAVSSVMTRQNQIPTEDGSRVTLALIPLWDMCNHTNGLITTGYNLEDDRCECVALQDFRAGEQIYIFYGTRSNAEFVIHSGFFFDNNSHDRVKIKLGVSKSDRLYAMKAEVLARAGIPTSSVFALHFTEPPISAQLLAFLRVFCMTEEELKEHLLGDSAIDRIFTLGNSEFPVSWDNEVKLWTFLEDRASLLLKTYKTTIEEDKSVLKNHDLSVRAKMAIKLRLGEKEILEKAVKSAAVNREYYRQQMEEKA
Kind of experiment: ITC; peptide (0.5-1 mM) titrated into SETD3 (0.05 mM) pre-incubated with SAH (1:10); 25 °C; 20 mM Tris-HCl pH 8.0, 150 mM NaCl; one set of binding sites model. The note with it: both partners purified. (In general: ITC needs no label: the signal is the heat of the interaction.)

In experiment [2] the target is T1, human SETD3 (residues 1-497). Briefly: ITC; peptide (0.5-1 mM) titrated into SETD3 (0.05 mM) pre-incubated with sinefungin (SFG) (1:10); 25 °C; 20 mM Tris-HCl pH 8.0, 150 mM NaCl; one set of binding sites model. The note with it: both partners purified.

B1: β-actin peptide, residues 66-81, with His73 (βA-His73) (peptide, UniProt P60709 66-81, looked up)
peptide: TLKYPIEHGIVTNWDD-NH2
notes: β-actin, human, 16-mer, residues 66-81; Made on Rink amide resin, so a C-terminal amide is surmised; also called wild type βA-His73; wild type β-actin peptide; source: synthetic peptide (microwave-assisted SPPS on Rink amide resin, RP-HPLC)
For orientation: Kd means the constant that tells how readily two partners part at equilibrium. Lower therefore signals tighter binding. In the case of B1, the Kd in experiment [1] came out at 700 nM; in experiment [2], 1000 nM.
